Experimental data published in patent US20200181255A1 (Amgen, published 2020).

T1: recombinant cynomolgous IL-23 (cynomolgous)
T1 chain 1: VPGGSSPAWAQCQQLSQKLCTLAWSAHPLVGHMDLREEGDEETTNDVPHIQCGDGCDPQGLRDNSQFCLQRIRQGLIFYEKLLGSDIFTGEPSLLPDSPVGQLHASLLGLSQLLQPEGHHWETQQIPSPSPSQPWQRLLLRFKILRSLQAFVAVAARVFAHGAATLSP
T1 chain 2: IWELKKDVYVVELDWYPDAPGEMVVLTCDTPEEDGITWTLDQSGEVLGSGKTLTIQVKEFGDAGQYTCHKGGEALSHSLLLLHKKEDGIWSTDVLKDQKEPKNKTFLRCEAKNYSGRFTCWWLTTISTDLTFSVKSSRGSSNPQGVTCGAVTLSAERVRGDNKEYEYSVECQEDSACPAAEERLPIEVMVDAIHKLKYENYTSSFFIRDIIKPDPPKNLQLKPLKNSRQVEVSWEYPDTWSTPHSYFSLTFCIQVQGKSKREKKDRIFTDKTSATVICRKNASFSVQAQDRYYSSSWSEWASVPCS

T2: Native human IL-23 (human, UniProt Q9NPF7 20-189; P29460 23-328)
T2 sequence 1: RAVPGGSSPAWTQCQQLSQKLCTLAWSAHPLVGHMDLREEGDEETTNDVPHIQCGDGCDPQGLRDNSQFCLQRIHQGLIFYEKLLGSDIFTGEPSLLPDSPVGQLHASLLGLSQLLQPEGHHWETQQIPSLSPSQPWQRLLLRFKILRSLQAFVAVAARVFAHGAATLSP
T2 sequence 2: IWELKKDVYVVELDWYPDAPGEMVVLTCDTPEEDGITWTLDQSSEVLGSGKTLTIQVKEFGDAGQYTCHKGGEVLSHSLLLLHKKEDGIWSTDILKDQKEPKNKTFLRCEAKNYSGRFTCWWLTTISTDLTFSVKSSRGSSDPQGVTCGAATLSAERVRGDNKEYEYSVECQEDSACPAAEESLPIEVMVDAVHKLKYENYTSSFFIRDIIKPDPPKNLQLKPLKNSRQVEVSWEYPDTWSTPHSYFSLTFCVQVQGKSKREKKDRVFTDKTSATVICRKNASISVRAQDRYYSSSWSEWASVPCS

T3: recombinant human IL-23 (human, UniProt Q9NPF7 20-189; P29460 23-328)
T3 sequence 1: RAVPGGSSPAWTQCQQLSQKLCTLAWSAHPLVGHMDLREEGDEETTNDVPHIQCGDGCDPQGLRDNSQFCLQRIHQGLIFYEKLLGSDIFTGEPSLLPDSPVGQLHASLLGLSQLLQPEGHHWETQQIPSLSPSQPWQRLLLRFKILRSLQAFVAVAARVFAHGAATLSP
T3 sequence 2: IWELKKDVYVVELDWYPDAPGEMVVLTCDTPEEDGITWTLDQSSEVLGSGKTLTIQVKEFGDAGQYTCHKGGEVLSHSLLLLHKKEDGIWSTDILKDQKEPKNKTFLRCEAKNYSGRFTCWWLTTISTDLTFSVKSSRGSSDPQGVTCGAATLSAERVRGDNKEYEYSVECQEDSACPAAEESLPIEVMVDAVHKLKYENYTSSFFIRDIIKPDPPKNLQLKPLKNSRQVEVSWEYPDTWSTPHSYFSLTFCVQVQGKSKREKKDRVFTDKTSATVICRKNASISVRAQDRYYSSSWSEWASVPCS


What was measured:
[1] = target: T1, recombinant cynomolgous IL-23; test: cell-based or functional assay
Native human IL-23 [2] = target: T2, Native human IL-23; test: cell-based or functional assay
recombinant human IL-23 [3] = target: T3, recombinant human IL-23; test: cell-based or functional assay
[4] = target: T1, recombinant cynomolgous IL-23; test: cell-based or functional assay
recombinant human IL-23 [5] = target: T3, recombinant human IL-23; test: cell-based or functional assay; remark: listed apart in the source
recombinant human IL-23 [6] = target: T3, recombinant human IL-23; test: KinExA
recombinant human IL-23 [7] = target: T3, recombinant human IL-23; test: KinExA, derived from KD=Koff/Kon
recombinant human IL-23 [8] = target: T3, recombinant human IL-23; test: KinExA, solution equilibrium, rhuIL-23-coated beads
Protocol: Normal human serum (NHS)-activated Sepharose 4 fast flow beads (Amersham Biosciences, part of GE Healthcare, Uppsala, Sweden), are pre-coated with rhuIL-23 and blocked with 1 m Tris buffer with 10 mg/mL BSA. 50 pM of IL-23 antibody is incubated with rhuIL-23 (12 points of 1:2 dilutions starting from 800 pM) at room temperature for 72 hours before it is run through the rhuIL-23-coated Sepharose beads. The amount of the bead-bound antibody was quantified by fluorescent (Cy5) labeled goat anti-human-Fc antibody (Jackson Immuno Research, West Grove, Pa.). The binding signal is proportional to the amount of free antibody at equilibrium.

Native human IL-23 [9] = target: T2, Native human IL-23; test: cell-based or functional assay; remark: listed apart in the source
[10] = target: T1, recombinant cynomolgous IL-23; test: cell-based or functional assay
recombinant human IL-23 [11] = target: T3, recombinant human IL-23; test: cell-based or functional assay; remark: listed apart in the source
[12] = target: T1, recombinant cynomolgous IL-23; test: cell-based or functional assay
recombinant human IL-23 [13] = target: T3, recombinant human IL-23; test: cell-based or functional assay; remark: listed apart in the source

Row | Binder | IC50 (pM), STAT-luciferase assay [1] [pM] | IC50 (pM), STAT-luciferase assay (Native human IL-23 [2]) [pM] | IC50 (pM), STAT-luciferase assay (recombinant human IL-23 [3]) [pM] | IC50 (pM), NK cell assay (IFNγ) [4] [pM] | IC50 (pM), NK cell assay (IFNγ) (recombinant human IL-23 [5]) [pM] | kon (recombinant human IL-23 [6]) [M⁻¹ s⁻¹] | koff (recombinant human IL-23 [7]) [s⁻¹] | Kd (recombinant human IL-23 [8]) [pM] | IC50 (pM), NK cell assay (IFNγ) (Native human IL-23 [9]) [pM] | IC50 (pM), IFNγ human whole blood assay [10] [pM] | IC50 (pM), IFNγ human whole blood assay (recombinant human IL-23 [11]) [pM] | IC50 (pM), IL-22 human whole blood assay [12] [pM] | IC50 (pM), IL-22 human whole blood assay (recombinant human IL-23 [13]) [pM]
1 | Antibody G (antibody, V domains shown, also called VH12/VL12) VH: QVQLQESGPRLVKPSETLSLTCTVSGDSISSYFWSWIRQPPGKGLEWLGYIYYSGSTNYNPSLKSRVTISIDTSKNQFSLKLSSVTAADTAVYYCTRDRGSYYGSDYWGQGTLVTVSS VL: DIQMTQSPSSVSASVGDRVTITCRAGQVISSWLAWYQQKPGKAPKLLIYAASSLQSGVPSRFSGSGSGTDFTLTISSLQPDDFATYYCQQATSFPLTFGGGTKVEIK | 421 | 156 | 296 | 23 | 45 | 400000 | 8.1e-07 | 2 | 152 | 93 | 53 | 66 | 83
2 | Antibody A (antibody, V domains shown) VH: QVQLQESGPGLVKPSQTLSLTCTVSGGSISSGGYYWSWIRQHPGKGLEWIGYIYYSGSTYYNPSLKSRVTMSVDTSKNQFSLKLSSVTAADTAVYYCAKNRGFYYGMDVWGQGTTVTVSS VL: DIQLTQSPSSVSASVGDRVTITCRASQVISSWFAWYQQKPGKAPNLLIYAASSLQSGVPSRFSGSGSGTDFTLTISSLQPADFATYFCQQANSFPFTFGPGTKVDVK | 379 | 114 | 190 | 31 | 42 |  |  |  |  |  |  |  | 
3 | Antibody H (antibody, V domains shown) VH: QVQLQESGPGLVKPSQTLSLTCTVSGGSISSGGYYWTWIRQHPGKGLEWIGYIYYSGNTYYNPSLKSRITISVDTSKNQFSLSLSSVTAADTAVYYCARNRGYYYGMDVWGQGTTVTVSS VL: DIQMTQSPSSVSASVGDRVTITCRASQGFSGWLAWYQQKPGKAPKLLIYAASSLQSGVPSRFSGSGSGTDFTLTISSLQPEDFATYYCQQANSFPFTFGPGTKVDIK | 1024 | 192 | 253 | 33 | 29 |  |  |  |  |  |  |  | 
4 | Antibody C (antibody, V domains shown, also called VH10/VL10) VH: QVQLQESGPGLVKPSQTLSLTCTVSGGSINSGGYYWSWIRQHPGKGLEWIGYIYYSGSSYYNPSLKSRVTISVDTSQNQFSLKLSSVTAADTAVYYCARDRGHYYGMDVWGQGTTVTVSS VL: DIQMTQSPSSVSASVGDRVTITCRASQGSSSWFAWYQQKPGKAPKLLIYAASSLQSGVPSRFSGSGSGTDFTLTISSLQPEDFATYYCQQANSFPFTFGPGTKVDIK | 376 | 107 | 211 | 29 | 32 | 1.36e+06 | 4.1e-06 | 2.56 |  | 186 | 97 |  | 
5 | Antibody E (antibody, V domains shown) VH: QVQLVESGGGVVQPGRSLRLSCAASGFTFSSYGMHWVRQAPGKGLEWVAVIWYDGSNEYYADSVKGRFTISRDNSKNTLYLQMNSLRAEDTAVYYCARDRGYTSSWYPDAFDIWGQGTMVTVSS VL: QSVLTQPPSVSGAPGQRVTISCTGSSSNTGAGYDVHWYQQVPGTAPKLLIYGSGNRPSGVPDRFSGSKSGTSASLAITGLQAEDEADYYCQSYDSSLSGWVFGGGTRLTVL | 188 | 140 |  | 21 |  |  |  |  | 158 | 54 |  | 56 | 

Next, values leading:

Row | IC50 (pM), STAT-luciferase assay [1] [pM] | IC50 (pM), STAT-luciferase assay (Native human IL-23 [2]) [pM] | IC50 (pM), STAT-luciferase assay (recombinant human IL-23 [3]) [pM] | IC50 (pM), NK cell assay (IFNγ) [4] [pM] | IC50 (pM), NK cell assay (IFNγ) (recombinant human IL-23 [5]) [pM] | kon (recombinant human IL-23 [6]) [M⁻¹ s⁻¹] | koff (recombinant human IL-23 [7]) [s⁻¹] | Kd (recombinant human IL-23 [8]) [pM] | IC50 (pM), NK cell assay (IFNγ) (Native human IL-23 [9]) [pM] | IC50 (pM), IFNγ human whole blood assay [10] [pM] | IC50 (pM), IFNγ human whole blood assay (recombinant human IL-23 [11]) [pM] | IC50 (pM), IL-22 human whole blood assay [12] [pM] | IC50 (pM), IL-22 human whole blood assay (recombinant human IL-23 [13]) [pM] | Binder
6 | 56 | 83 | 36 | 5 | 4 |  |  |  |  |  |  |  |  | Antibody J (antibody, V domains shown) VH: QVQLVESGGGVVQPGRSLRLSCAASGFTFSSYGMHWVRQAPGKGLEWVAVISFDGSLKYYADSVKGRFTISRDNSKNTLYLQMNSLRAEDTAVYYCARERTTLSGSYFDYWGQGTLVTVSS VL: QAVLTQPSSLSASPGASASLTCTLRSGINVGTYRIYWYQQKPGSPPQYLLRYKSDSDKQQGSGVPSRFSGSKDASANAGILLISGLQSEDEADYYCMIWHSSASVFGGGTKLTVL
7 | 47 | 113 | 23 | 4 | 3 | 3.34e+06 | 3.7e-06 | 1.08 |  |  |  |  |  | Antibody L (antibody, V domains shown, also called VH4/VL4) VH: QVQLVESGGGVVQPGRSLRLSCAASGFTFSSYAMHWVRQAPGKGLEWLSVISHDGSIKYYADSVKGRFTISRDNSKNTLYLQMNSLRAEDTAVYYCARERTTLSGSYFDYWGQGTLVTVSS VL: QAVLTQPSSLSASPGASASLTCTLRSGINVGTYRIYWYQQKPGSPPQYLLRYKSDSDKQQGSGVPSRFSGSKDASANAGILLISGLQSEDEADYYCMIWHSSASVFGGGTKLTVL
8 | 61 | 71 | 43 | 8 | 7 |  |  |  |  |  |  |  |  | Antibody K (antibody, V domains shown) VH: EVQLVESGGGLVQPGGSLRLSCVVSGFTFSSFSMNWVRQAPGKGLEWVSYISSRSSTIYYADSVKGRFTISRDNAKNSLYLQMNSLRDEDTAVYYCARRIAAAGPWGYYYAMDVWGQGTTVTVSS VL: QPELTQPPSASASLGASVTLTCTLSSGYSDYKVDWYQLRPGKGPRFVMRVGTGGTVGSKGEGIPDRFSVLGSGLNRSLTIKNIQEEDESDYHCGADHGSGSNFVYVFGTGTKVTVL
9 | 56 | 34 | 40 | 12 | 8 |  |  |  |  |  |  |  |  | Antibody M (antibody, V domains shown) VH: EVQLVESGGGLVQPGGSLRLSCAASGFTFSSYSMNWVRQAPGKGLEWVSYISSRSSTIYIADSVKGRFTISRDNAKNSLYLQMNSLRDEDTAVYYCARRIAAAGGFHYYYALDVWGQGTTVTVSS VL: QPVLTQPPSASASLGASVTLTCTLNSGYSDYKVDWYQQRPGKGPRFVMRVGTGGIVGSKGDGIPDRFSVLGSGLNRYLTIKNIQEEDESDYHCGADHGSGSNFVYVFGTGTKVTVL
10 | 238 | 361 | 145 |  |  |  |  |  |  |  |  |  |  | Antibody N (antibody, V domains shown) VH: EVQLVESGGGLVQPGGSLRLSCAASGFTFSTYSMNWVRQAPGKGLEWVSYISSSSSTRYHADSVKGRFTISRDNAKNSLYLQMNSLRDEDTAVYYCARRIAAAGPWGYYYAMDVWGQGTTVTVSS VL: QPVLTQPPSASASLGASVTLTCTLSSGYSDYKVDWYQQRPGKGPRFVMRVGTGGIVGSKGEGIPDRFSVLGSGLNRYLTIKNIQEEDESDYHCGADHGSGNNFVYVFGTGTKVTVL
11 | 650 | 208 | 338 | 52 | 69 |  |  |  |  |  |  |  |  | Antibody I (antibody, V domains shown) VH: QVQLQESGPGLVKPSETLSLTCTVSGGSISTYYWSWIRQPAGKGLEWIGLIYTSGSTNYNPSLKSRVTMSLDTSKNQFSLRLTSVTAADTAVYYCARDRGYYYGVDVWGQGTTVTVSS VL: DIQLTPSPSSVSASVGDRVTITCRASQGIAGWLAWYQQKPGKAPKLLIYAASSLQSGVPSRFSGSGSGTDFTLTISSLQPEDFATYYCQQADSFPPTFGGGTKVEIK
